Reference: publication PMC3519878

Assay: SEC; HiLoad 16/60 Superdex 75 pg; protein purified by Ni2+-NTA injected at 0.5 mM

Row | Substance | area of the peak at 63 min (elutes as a dimer would), percent of monomer peak area
1 | mClavGR2 | 6.7% vs. 25.8% of monomer peak area
2 | mMaple | 6.7% vs. 25.8% of monomer peak area
